From patent publication US20250136718A1 (MABWELL THERAPEUTICS, published 2025) come the findings set out here.

Like-named read-outs stand apart in the source and are kept apart here.

In assay [1] the target is T1, human TMPRSS6 (matriptase-2) expressed on HEK293T cells, huTMPRSS6-(His)6 (UniProt Q8IU80 10-811).
T1 chain: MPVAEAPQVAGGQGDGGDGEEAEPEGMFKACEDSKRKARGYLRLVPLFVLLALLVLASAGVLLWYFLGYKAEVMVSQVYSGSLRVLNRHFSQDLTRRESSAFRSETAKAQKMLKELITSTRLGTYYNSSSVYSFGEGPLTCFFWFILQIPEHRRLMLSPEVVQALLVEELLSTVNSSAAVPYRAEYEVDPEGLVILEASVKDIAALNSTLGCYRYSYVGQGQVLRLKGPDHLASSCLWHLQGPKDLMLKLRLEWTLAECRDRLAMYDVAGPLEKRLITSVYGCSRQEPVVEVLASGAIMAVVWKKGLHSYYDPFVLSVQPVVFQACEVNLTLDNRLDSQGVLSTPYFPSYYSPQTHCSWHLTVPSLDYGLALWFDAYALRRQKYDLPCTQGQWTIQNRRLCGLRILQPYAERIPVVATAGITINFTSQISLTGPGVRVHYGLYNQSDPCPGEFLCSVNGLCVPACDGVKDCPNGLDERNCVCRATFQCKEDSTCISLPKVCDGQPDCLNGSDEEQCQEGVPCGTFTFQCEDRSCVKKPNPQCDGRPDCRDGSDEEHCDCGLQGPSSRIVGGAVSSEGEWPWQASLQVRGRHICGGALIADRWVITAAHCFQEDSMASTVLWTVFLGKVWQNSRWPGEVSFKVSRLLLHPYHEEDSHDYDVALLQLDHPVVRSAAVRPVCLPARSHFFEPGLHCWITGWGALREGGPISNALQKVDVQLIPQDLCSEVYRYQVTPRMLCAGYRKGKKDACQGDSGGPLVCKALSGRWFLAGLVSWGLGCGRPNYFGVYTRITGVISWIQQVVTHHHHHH
The experiment in a line: FACS.

Assay [2] addresses T2, mouse TMPRSS6 expressed on HEK293T cells, MoTMPRSS6-(His)6 (mouse, UniProt Q9DBI0 1-811).
T2 construct: HEK293T cells stably expressing the construct; also called murine TMPRSS6
T2 sequence: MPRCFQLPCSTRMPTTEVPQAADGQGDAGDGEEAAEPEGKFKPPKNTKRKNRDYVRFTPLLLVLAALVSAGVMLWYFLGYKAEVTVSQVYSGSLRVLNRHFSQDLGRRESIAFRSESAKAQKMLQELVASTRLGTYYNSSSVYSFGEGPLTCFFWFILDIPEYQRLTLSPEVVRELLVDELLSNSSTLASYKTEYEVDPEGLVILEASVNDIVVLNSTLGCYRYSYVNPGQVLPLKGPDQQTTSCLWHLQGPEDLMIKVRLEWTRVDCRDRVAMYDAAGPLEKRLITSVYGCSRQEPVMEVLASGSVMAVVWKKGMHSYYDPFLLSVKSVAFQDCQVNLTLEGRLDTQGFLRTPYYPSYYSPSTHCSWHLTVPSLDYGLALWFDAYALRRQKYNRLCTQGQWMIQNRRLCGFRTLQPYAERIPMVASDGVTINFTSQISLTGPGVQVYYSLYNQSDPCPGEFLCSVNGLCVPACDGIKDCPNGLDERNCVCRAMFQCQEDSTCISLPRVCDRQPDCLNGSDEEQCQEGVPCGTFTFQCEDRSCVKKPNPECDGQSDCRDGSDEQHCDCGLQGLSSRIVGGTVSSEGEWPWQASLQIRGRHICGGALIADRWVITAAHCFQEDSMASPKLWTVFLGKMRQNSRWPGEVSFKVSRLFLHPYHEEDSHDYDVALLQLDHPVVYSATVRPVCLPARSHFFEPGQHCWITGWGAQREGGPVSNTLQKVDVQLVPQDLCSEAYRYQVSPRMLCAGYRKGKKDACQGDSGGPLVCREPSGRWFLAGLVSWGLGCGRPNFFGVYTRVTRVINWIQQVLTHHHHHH
The experiment in a line: summary of Example 4 (FACS, cell surface ELISA). The protocol:
Selected anti-TMPRSS6 antibodies were tested to determine whether any are capable of binding to TMPRSS6 from mouse and/or cynomolgus monkey. HEK293T cells stably expressing human TMPRSS6 (HuTMPRSS6-(His)₆) (generated by LakePharma Inc as described above), HEK293T cells stably expressing mouse TMPRSS6 (MoTMPRSS6-(His)₆) (SEQ ID NO: 98) (generated by LakePharma Inc as described above) and HEK293T cells transiently expressing cynomolgus monkey TMPRSS6 (CynoTMPRSS6-(His)₆) (SEQ ID NO: 99) (generated in house) were collected. HEK293T cells stably expressing human TMPRSS6 were used as a positive control and HEK293T cells were used as a negative control (as described above). Cells were blocked with dPBS+3% BSA before incubation with anti-TMPRSS6 antibodies diluted in dPBS+3% BSA. After incubation, cells were washed with dPBS and followed by another incubation with goat anti-mouse IgG conjugated with AlexaFluor-488 as a 2° antibody (Invitrogen). At last, cells were washed with dPBS to remove unbound antibody, re-suspended with dPBS+1 mM EDTA, and then subjected to FACS analysis using a NOVOCYTE® Flow Cytometer (ACEA Biosciences, Inc., San Diego CA). Bound antibody was determined by excitation at 488 nm and measurement of emission (FITC-A) at 530 nm. Results for these assays are shown in histogram plots in FIGS. 4A-4I.
HEK293T cells stably expressing mouse TMPRSS6 (generated by LakePharma Inc as described above, FIGS. 4J, 4L, 4N, 4P, 4R, 4T) or cynomolgus monkey (generated in house as described above, FIGS. 4K, 4M, 4O, 4Q, 4S, 4U) were fixed with methanol (100%), and washed with dPBS (Dulbecco's phosphate-buffered saline, Corning Cellgro) before incubation with various concentrations of anti-TMPRSS6 antibodies and their humanized variants diluted in BSA medium (DMEM+1% Pen/Strep+10 mM HEPES+1 mg/ml BSA (Sigma-Aldrich)). Purified mouse IgG (FIGS. 4J-4O) or Human IgG1 (FIGS. 4P-4U) was used as a control.

Assay [3] addresses T1, human TMPRSS6 (matriptase-2) expressed …. The experiment in a line: cell surface ELISA.
The target in assay [4] is T3, mouse TMPRSS6 expressed on HEK293T cells, MoTMPRSS6-(His)6 (UniProt Q9DBI0 1-811).
T3 chain: T2 sequence
The experiment in a line: cell surface ELISA.

The target in assay [5] is T3, mouse TMPRSS6 expressed on HEK293T …. Kind of assay: cell surface ELISA.

B1: MWTx-001 anti-TMPRSS6 monoclonal antibody (antibody, mouse IgG2a, kappa, V domains shown)
VH: QVQLQQPGAELAKPGASVKMSCKASGYTFTSYWITWVKQRPGQDLEWIGNIYPGSGSTYYNEKFKSKATLTVDTSSRTAYMQLSSLTSADSAVYYCAPYDSDYAMDYWGQGTSVTVSS
VL: DIKMTQSPSSMYASLGERVTITCKASQDINNYLSWFQQKPGKSPKTLIYRANRLVDGVPSRVSGSGSGQDYSLTISSLEYEDVGIYFCLQYDEFPLTFGAGTKLELKR
notes: Mouse monoclonal antibody from hybridoma (ATCC PTA-126759)
On to B1, for which the figures for the EC50 in assay [1], in assay [3] and in assay [4] were 1 µg/mL, 0.2 µg/mL and 0.25 µg/mL, respectively. In addition, the binding result in assay [2] is “binds”.

B2: humanized anti-TMPRSS6 antibody variant hzMWTx-001 Var (antibody, human IgG1, kappa, N297A, V domains shown)
VH: EVQLVQSGAEVKKPGASVKVSCKASGYTFTSYWITWVRQAPGQRLEWIGNIYPGSGSTYYNEKFKSKATITRDTSSRTAYMELSSLRSEDTAVYYCAPYDADYAMDYWGQGTLVTVSS
VL: DIQMTQSPSSLSASVGDRVTITCKASQDISNYLSWFQQKPGKAPKLLIYRANRLVEGVPSRFSGSGSGTDFTLTISSLQPEDFATYFCLQYDEFPLTFGGGTKVEIKR
notes: Human IgG1 / kappa
In assay [5], B2 displayed an EC50 of 0.03 µg/mL.

B3: MWTx-003 anti-TMPRSS6 monoclonal antibody (antibody, mouse IgG2b, kappa, V domains shown)
VH: EVQLQQSGAELVKPGASVKLSCTASGFNIEDYYIHWVKERTEQGLEWIGRIDPEDGETTYAPQFQGKATIIPDTSSNTAYMQLSSLTSEDAAVYYCARSIYLDPMDYWGQGTSVTVSS
VL: DIVMTQSHKFMSTSVGDRVSITCKASQDVTTAVAWYQQKPGQSPKILIYWATTRHTGVPDRFTGSISGTTYILTISSVQAEDLALYYCQQHYSTPYTFGGGTKLEIKR
notes: Mouse monoclonal antibody from hybridoma (ATCC PTA-126761); The recombinant version r4K12B has the same HC and LC; also called r4K12B; recombinant MWTx-003
In the case of B3, the EC50 in assay [1] amounted to 0.2 µg/mL; in assay [3], 0.05 µg/mL; in assay [4], 0.07 µg/mL. In addition, in assay [2], the binding result is “binds”.

B4: MWTx-002 anti-TMPRSS6 monoclonal antibody (antibody, mouse IgG2b, kappa, V domains shown)
VH: EVQLQQSGAELVKPGASVKLSCTASGFNIKDYYIHWVKERTEQGLEWFGRIDPEDGESEYAPKFQGKATLTADTSSNTAYLQLSSLTSEDTAVYYCTRGDSMMVTYFDYWGQGTTLTVSS
VL: DIVMTQSHKFMSTSVGDRVSITCKASQDVSTAVAWYQQKPGQSPKLLIYWAFTRHTGVPDRFTSTGSGTDYALTISSVQAEDLALYYCQQHYRSPWTFGGGTKLEIKR
notes: Mouse monoclonal antibody from hybridoma (ATCC PTA-126760)
For B4, the EC50 in assay [1] turned out to be 0.2 µg/mL; in assay [3], 0.04 µg/mL.

B5: humanized anti-TMPRSS6 antibody variant hzMWTx-003 Var (antibody, human IgG1, kappa, L234A L235A, V domains shown)
VH: QVQLVQSGAEVKKPGASVKVSCKASGFNIEDYYMHWVRQAPGQRLEWMGRIDPEDAETTYSPKFQGRVTIIPDTSANTAYMELSSLRSEDTAVYYCARSIYLDPMDYWGQGTLVTVSS
VL: DIQMTQSPKSLSASVGDRVTITCRASQDVTTALAWYQQKPGQSPKLLIYWATTRHSGVPSRFSGSGSGTDFTLTISSLQPEDFATYYCQQHYSTPYTFGQGTKLEIKR
notes: Human IgG1 / kappa
B5 yielded an EC50 in assay [5] of 0.31 µg/mL.
